Drawing on US20160053007A1, this text covers IL-2 production by activated T cells, increase by TL1A, IL-4 production by activated T cells, increase by TL1A and interferon-γ production by activated T cells, increase by TL1A for 1 substance.

In the assay the target is DR3 on mouse CD4+ T cells (mouse). Put plainly: cell-based or functional assay.
Sequence of DR3 on mouse CD4+ T cells (mouse) (Q9QZZ6 19-201): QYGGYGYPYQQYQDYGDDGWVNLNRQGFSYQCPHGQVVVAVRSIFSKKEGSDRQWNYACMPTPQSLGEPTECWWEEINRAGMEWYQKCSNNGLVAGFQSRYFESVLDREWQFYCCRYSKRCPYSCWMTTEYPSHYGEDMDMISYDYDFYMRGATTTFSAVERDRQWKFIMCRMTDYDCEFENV

As for “recombinant mouse TL1A (from UniProt Q5UBV8 76-252) (ligand)”, the IL-2 production by activated T cells, increase by TL1A was < 2 fold; the IL-4 production by activated T cells, increase by TL1A amounted to 10 fold; the interferon-γ production by activated T cells, increase by TL1A was < 2 fold.
